Tests used:
[1] = system: Rat1a-MYC cells; test: In vitro growth of Rat1a-MYC cells overexpressing dominant negative Rcl E93A; format: cell-based, rat; conditions: Rat1a-MYC cells overexpressing the mutant
From the text: (§1) In addition to the studies on RCL (C6orf108) gain-of-function in tumorigenesis, we determined the effect of loss of RCL function on tumorigenesis with the Rat1a-Myc cells. We generated control Rat1a-MYC cells and Rat1a-MYC cells that overexpress the dominant negative Rcl E 93A mutant. Two independent control transfected cell pools and two independent Rcl E 93A Rat1a-MYC transfectant cell pools were studied (FIG. 7).

[2] = system: Rat1a-MYC cell xenografts; test: Nude mouse xenografts of Rat1a-MYC-Rcl-E93A cells, tumorigenicity; format: in vivo; conditions: two independent cell pools
From the text: FIG. 7A. Immunoblot showing expression of Rcl-E93A protein in 293T cells; pPURO (pBabe-Puro) represents control transfected cells; none=untransfected cells. B. Immunoblot showing expression of Rcl and Rcl-E 93A in Rat1a-MYC cells (which have high levels of endogenous Rcl). Numbers at the top represents different cell pools. Numbers at the bottom represents normalized relative expression. C. Agarose gel showing expression of Rcl-E93A mRNA in transfectants by RT-PCR of control pPURO or Rcl-E93A expressing Rat1a-MYC cell pools. Signals are dependent on reverse transcriptase (not shown) D. Tumor sizes of pBABE (pools 1 and 2) control Rat1a-Myc cell pools compared with RCL E93A expressing Rat1a-MYC cell pools (E93A#1+E93A#4). Average tumor sizes determined by caliper are shown for groups of nine animals. Error bars are standard deviations.
as §1

B1: Rcl E 93A: dominant negative RCL mutant, Glu-93 replaced by Ala, overexpressed in Rat1a-MYC cells (protein, UniProt O35820 2-163, looked up, variant E93A)
5-hydroxymethyl-dUMP …: AASGEQAPCSVYFCGSIRGGREDQALYARIVSRLRRYGKVLTEHVADAELEPLGEEAAGGDQFIHEQDLNWLQQADVVVAEVTQPSLGVGYALGRAVALGKPILCLFRPQSGRVLSAMIRGAADGSRFQVWDYAEGEVETMLDRYFEAYLPQKTASSSHPSA
With B1 the “effect on growth rates in vitro” value [1] was “does not affect growth rates” and the “tumorigenicity of xenografts versus control cell pools” value [2] was “remarkable decrease in tumorigenicity”.

Source: patent US7781394B2, “Methods for identifying anti-tumor and/or anti-angiogenesis drugs with deoxynucleoside 5′-monophosphate N-glycosidase as the target” (Institut Pasteur, priority 2006, dated 2010)
